Source: article PMC7672437

Target: Human recombinant full length DDX3X (human) (UniProt O00571)

helicase activity (unwinding of dsRNA Substrate *R18: R38) against DDX3X concentration, cooperativity index nH: 1.5
helicase activity (unwinding of dsRNA Substrate *R18: R38) against DDX3X concentration, half-maximal enzyme concentration K1/2: 0.26 µM
nuclease (RNaseH2-like) activity against DDX3X concentration, cooperativity index nH (no cooperativity observed): 0.7
Substance: Human recombinant full length DDX3X (from UniProt O00571 1-662) (enzyme)
